Measurements reported in US20040033952A1 (published 2004).
Substitutions are numbered along the chain they refer to. Numbers in names are those of the source.

Tests used:
[1] = biological target: T1, human IGFBP-1 (human, UniProt P08833 26-259); assay: competitive phage ELISA
T1 construct: mature; also called IGFBP-I
T1 sequence (looked up): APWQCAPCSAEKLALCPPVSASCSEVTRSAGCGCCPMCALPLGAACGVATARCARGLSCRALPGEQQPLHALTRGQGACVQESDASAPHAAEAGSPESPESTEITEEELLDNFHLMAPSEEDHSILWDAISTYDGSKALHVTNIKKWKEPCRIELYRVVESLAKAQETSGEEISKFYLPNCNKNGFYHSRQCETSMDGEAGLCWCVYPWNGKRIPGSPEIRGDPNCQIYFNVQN
Experimental: (§1) E. coli cells (XL1-Blue, Stratagene) freshly transformed with phagemid vector were grown overnight in 5 mL 2YT medium (Sambrook et al., supra) in the presence of M13-VCS helper phage (Stratagene). Phage particles were harvested and resuspended in PBS buffer as described in Lowman, H. B., “Phage Display of Peptide Libraries on Protein Scaffolds,” in Cabilly, S. (ed.), Combinatorial Peptide Library Protocols (Humana Press Inc.: Totowa, N.J., 1998), pp. 249-264. Then phage concentrations were normalized to yield a maximal ELISA signal of 0.2-0.4 for each mutant (Lowman, in Cabilly, S. (ed.), supra). Threefold serial dilutions of soluble competitor were prepared on non-absorbent microtiter plates (Nune, F, 96 wells) with binding buffer (0.5% TWEEN™ 20/PBS) containing phage at the previously-determined concentrations. The dilution range of competitor protein extended over six orders of magnitude, starting at 5 μM for IGFBP-1 and 500 nM for IGFBP-3. After blocking, the plates containing immobilized target were washed with 0.05% TWEEN™/PBS buffer and subsequently incubated with 80 μl/well of the premixed phage-competitor solutions for 1 hour at room temperature. After washing, bound phage was detected with 80 μl/well of a solution containing a primary rabbit anti-phage polyclonal antibody and a secondary goat anti-rabbit monoclonal antibody-horseradish peroxidase conjugate in 0.5% TWEEN20™/PBS. o-Phenylenediamine (Sigma) and tetramethylbenzidine (Kirkegaard and Perry) were used as chromogenic substrates, resulting in product detection at 492 and 450 nm, respectively. IC₅₀ values were determined by fitting the binding data to a generic saturation curve (Lowman, in Cabilly, S. (ed.), supra).

[2] = biological target: T2, recombinant human IGFBP-3 (human, UniProt P17936 28-291); assay: competitive phage ELISA
T2 construct: mature
T2 sequence (P17936 28-291): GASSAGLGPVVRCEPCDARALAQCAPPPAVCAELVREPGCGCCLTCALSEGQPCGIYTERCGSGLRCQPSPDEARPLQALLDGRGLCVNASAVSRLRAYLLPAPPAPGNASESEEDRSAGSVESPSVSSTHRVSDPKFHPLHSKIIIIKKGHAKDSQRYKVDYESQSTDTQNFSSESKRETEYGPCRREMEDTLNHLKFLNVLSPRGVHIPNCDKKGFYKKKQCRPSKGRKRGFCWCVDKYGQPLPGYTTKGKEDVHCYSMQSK
Experimental: as §1

[3] = biological target: T3, human IGFBP-1 (human), P08833; assay: competitive phage ELISA; conditions: remark: other sources report otherwise
T3 chain: T1 sequence (looked up)

[4] = biological target: T3, human IGFBP-1 (human), P08833; assay: competitive phage ELISA, IGFBP-3-coated wells, soluble IGFBP-1 as competitor (FIG. 3A); conditions: remark: other sources report otherwise

For “IGF-I L5A (phage-displayed) (from UniProt P69168 267-424) (ligand)”, the relative IC50 (IC50 mut/IC50 G1S-A70V) [1] was 6.7 and the relative IC50 (IC50 mut/IC50 G1S-A70V) [2] was 2.

B1: IGF-I F49A (phage-displayed), P07455 51-118 (ligand, not shown: large carriers; small tags and cut ends)
chain: SPETLCGAELVDALQFVCGDRGFYFNKPTGYGSSSRRAPQTGIVDECCARSCDLRRLEMYCAPLKPAKSV
With B1 the relative IC50 (IC50 mut/IC50 G1S-A70V) [3] was > 100 and the shift of the binding curve against G1S-A70V phage [4] was > 100 fold.

B2: IGF-I G7A (phage-displayed) (ligand)
chain: B1 chain with G7A, A49F
notes: G1S-A70V template; monovalent M13 display; not shown: M13 gene III fragment (residues 249-406), the display carrier, and its junction to IGF-I
In the case of B2, the IC50 [2] is reported as 4.58 nM.

B3: Ala(1-3)-IGF-I (phage-displayed triple alanine mutant) (ligand)
chain: B1 chain with S1A, P2A, E3A, A49F
With B3 the IC50 [1] was 90.4 nM and the IC50 [2] was 1.12 nM.
